Experimental data published in US20230192903A1 (published 2023).
Positions count from the first letter of the chain named.

B1: bispecific antibody Y6 (bispecific antibody, human IgG1, kappa)
light: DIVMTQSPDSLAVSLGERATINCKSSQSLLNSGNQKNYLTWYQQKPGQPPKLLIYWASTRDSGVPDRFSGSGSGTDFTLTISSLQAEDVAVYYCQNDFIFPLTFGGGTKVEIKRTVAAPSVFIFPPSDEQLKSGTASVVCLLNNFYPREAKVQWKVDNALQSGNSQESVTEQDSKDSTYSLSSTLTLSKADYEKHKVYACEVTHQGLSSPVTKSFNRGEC
heavy: QVQLQESGPGLVKPSETLSLTCTVSGFSLTRYGVSWIRQPPGKGLEWIGVIWGEGNTNYNPSLKSRVTISKDSSKSQVSLKLSSVTAADTAVYYCARVNFGNALDYWGQGTLVTVSSASTKGPSVFPLAPSSKSTSGGTAALGCLVKDYFPEPVTVSWNSGALTSGVHTFPAVLQSSGLYSLSSVVTVPSSSLGTQTYICNVNHKPSNTKVDKKVEPKSCDKTHTCPPCPAPPVAGPSVFLFPPKPKDTLMISRTPEVTCVVVDVSHEAPEVQFNWYVDGVEVHNAKTKPREEQFNSTFRVVSVLTVVHQDWLNGKEYKCKVSNKGLPAPIEKTISKTKGQPREPQVYTLPPCRDELTKNQVSLWCLVKGFYPSDIAVEWESNGQPENNYKTTPPVLDSDGSFFLYSKLTVDKSRWQQGNVFSCSVMHEALHNHYTQKSLSLSPGK
chain: QVQLVESGGGVVQPGRSLRLSCAASGFTFSTYAMNWVRQAPGKGLEWVARIRSKYNNYATYYADSVKDRFTISRDDSKNTLYLQMNSLRAEDTAVYYCARHGNFGNSYVSWFAYWGQGTLVTVSSGGGGSGGGGSGGGGSQTVVTQEPSLTVSPGGTVTLTCRSSTGAVTTSNYANWVQQKPGQAPRGLIGGTNKRAPGVPARFSGSLLGGKAALTLSGVQPEDEAEYYCALWYSNLWVFGGGTKVEIKGRGRGSDKTHTCPPCPAPPVAGPSVFLFPPKPKDTLMISRTPEVTCVVVDVSHEAPEVQFNWYVDGVEVHNAKTKPREEQFNSTFRVVSVLTVVHQDWLNGKEYKCKVSNKGLPAPIEKTISKTKGQPREPQVCTLPPSRDELTKNQVSLSCAVKGFYPSDIAVEWESNGQPENNYKTTPPVLDSDGSFFLVSKLTVDKSRWQQGNVFSCSVMHEALHNHYTQKSLSLSPGK
notes: YBODY structure: anti-CLDN18.2 Fab arm (2C6.9) and second monomer anti-CD3 scFv (2a5)-Fc
B2: bispecific antibody CS4 (bispecific antibody, human IgG1, kappa)
light: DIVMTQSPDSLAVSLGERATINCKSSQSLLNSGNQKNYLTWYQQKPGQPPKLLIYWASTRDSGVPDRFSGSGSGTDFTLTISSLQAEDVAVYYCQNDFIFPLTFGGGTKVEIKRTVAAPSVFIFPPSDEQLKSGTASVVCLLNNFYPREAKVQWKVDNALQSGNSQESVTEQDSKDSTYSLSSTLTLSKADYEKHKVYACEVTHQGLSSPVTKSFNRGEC
heavy 1: B1 heavy
heavy 2: QVQLQESGPGLVKPSETLSLTCTVSGFSLTRYGVSWIRQPPGKGLEWIGVIWGEGNTNYNPSLKSRVTISKDSSKSQVSLKLSSVTAADTAVYYCARVNFGNALDYWGQGTLVTVSSASTKGPSVFPLAPSSKSTSGGTAALGCLVKDYFPEPVTVSWNSGALTSGVHTFPAVLQSSGLYSLSSVVTVPSSSLGTQTYICNVNHKPSNTKVDKKVEPKSCDKTHTAPAPAPAPAPAPAPAPQVQLVESGGGVVQPGRSLRLSCAASGFTFSTYAMNWVRQAPGKGLEWVARIRSKYNNYATYYADSVKDRFTISRDDSKNTLYLQMNSLRAEDTAVYYCARHGNFGNSYVSWFAYWGQGTLVTVSSGGGGSGGGGSGGGGSQTVVTQEPSLTVSPGGTVTLTCRSSTGAVTTSNYANWVQQKPGQAPRGLIGGTNKRAPGVPARFSGSLLGGKAALTLSGVQPEDEAEYYCALWYSNLWVFGGGTKVEIKGGGGSDKTHTCPPCPAPPVAGPSVFLFPPKPKDTLMISRTPEVTCVVVDVSHEAPEVQFNWYVDGVEVHNAKTKPREEQFNSTFRVVSVLTVVHQDWLNGKEYKCKVSNKGLPAPIEKTISKTKGQPREPQVCTLPPSRDELTKNQVSLSCAVKGFYPSDIAVEWESNGQPENNYKTTPPVLDSDGSFFLVSKLTVDKSRWQQGNVFSCSVMHEALHNHYTQKSLSLSPGK
notes: CSBODY structure: two 2C6.9 Fab arms; second heavy chain (first heavy entry) and first heavy chain with anti-CD3 scFv (2a5) between CH1 and Fc2
B3: bispecific antibody Y4 (bispecific antibody, human IgG1, kappa)
light: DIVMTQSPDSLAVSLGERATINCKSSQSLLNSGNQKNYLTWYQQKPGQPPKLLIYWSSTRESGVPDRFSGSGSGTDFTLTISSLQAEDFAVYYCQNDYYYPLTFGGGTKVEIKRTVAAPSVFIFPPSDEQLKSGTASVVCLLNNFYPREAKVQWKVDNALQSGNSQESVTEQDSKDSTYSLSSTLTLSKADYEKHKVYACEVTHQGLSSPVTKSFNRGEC
heavy: EVQLVESGGGLVKPGGSLRLSCAASGFSFSNSAMSWVRQAPGKGLEWVSTISSGDSYTYYADSVKGRFTISRDNAKNSLYLQMNSLRAEDTAVYYCARQGYGNALDYWGQGTLVTVSSASTKGPSVFPLAPSSKSTSGGTAALGCLVKDYFPEPVTVSWNSGALTSGVHTFPAVLQSSGLYSLSSVVTVPSSSLGTQTYICNVNHKPSNTKVDKKVEPKSCDKTHTCPPCPAPPVAGPSVFLFPPKPKDTLMISRTPEVTCVVVDVSHEAPEVQFNWYVDGVEVHNAKTKPREEQFNSTFRVVSVLTVVHQDWLNGKEYKCKVSNKGLPAPIEKTISKTKGQPREPQVYTLPPCRDELTKNQVSLWCLVKGFYPSDIAVEWESNGQPENNYKTTPPVLDSDGSFFLYSKLTVDKSRWQQGNVFSCSVMHEALHNHYTQKSLSLSPGK
chain: B1 chain
notes: YBODY structure: anti-CLDN18.2 Fab arm (1E9.2) and second monomer anti-CD3 scFv (2a5)-Fc
B4: bispecific antibody Y7 (bispecific antibody, human IgG1, kappa)
light: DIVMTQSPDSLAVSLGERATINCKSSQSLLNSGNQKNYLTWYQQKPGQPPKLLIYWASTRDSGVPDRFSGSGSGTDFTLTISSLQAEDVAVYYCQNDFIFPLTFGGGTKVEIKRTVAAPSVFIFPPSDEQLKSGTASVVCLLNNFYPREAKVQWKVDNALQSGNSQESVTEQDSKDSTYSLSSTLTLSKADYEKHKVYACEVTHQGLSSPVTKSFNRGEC
heavy: B1 heavy
chain: B1 chain with A49G, A90G, Y229T
notes: YBODY structure: anti-CLDN18.2 Fab arm (2C6.9) and second monomer anti-CD3 scFv (Di6-2)-Fc
B5: bispecific antibody CS3 (bispecific antibody, human IgG1, kappa)
light: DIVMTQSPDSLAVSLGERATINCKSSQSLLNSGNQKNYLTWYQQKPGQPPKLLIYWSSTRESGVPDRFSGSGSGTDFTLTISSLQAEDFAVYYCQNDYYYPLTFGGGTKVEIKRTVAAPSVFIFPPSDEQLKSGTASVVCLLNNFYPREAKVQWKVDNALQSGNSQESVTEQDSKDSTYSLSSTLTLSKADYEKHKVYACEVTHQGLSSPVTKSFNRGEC
heavy 1: B3 heavy
heavy 2: EVQLVESGGGLVKPGGSLRLSCAASGFSFSNSAMSWVRQAPGKGLEWVSTISSGDSYTYYADSVKGRFTISRDNAKNSLYLQMNSLRAEDTAVYYCARQGYGNALDYWGQGTLVTVSSASTKGPSVFPLAPSSKSTSGGTAALGCLVKDYFPEPVTVSWNSGALTSGVHTFPAVLQSSGLYSLSSVVTVPSSSLGTQTYICNVNHKPSNTKVDKKVEPKSCDKTHTAPAPAPAPAPAPAPAPQVQLVESGGGVVQPGRSLRLSCAASGFTFSTYAMNWVRQAPGKGLEWVARIRSKYNNYATYYADSVKDRFTISRDDSKNTLYLQMNSLRAEDTAVYYCARHGNFGNSYVSWFAYWGQGTLVTVSSGGGGSGGGGSGGGGSQTVVTQEPSLTVSPGGTVTLTCRSSTGAVTTSNYANWVQQKPGQAPRGLIGGTNKRAPGVPARFSGSLLGGKAALTLSGVQPEDEAEYYCALWYSNLWVFGGGTKVEIKGGGGSDKTHTCPPCPAPPVAGPSVFLFPPKPKDTLMISRTPEVTCVVVDVSHEAPEVQFNWYVDGVEVHNAKTKPREEQFNSTFRVVSVLTVVHQDWLNGKEYKCKVSNKGLPAPIEKTISKTKGQPREPQVCTLPPSRDELTKNQVSLSCAVKGFYPSDIAVEWESNGQPENNYKTTPPVLDSDGSFFLVSKLTVDKSRWQQGNVFSCSVMHEALHNHYTQKSLSLSPGK
notes: CSBODY structure: two 1E9.2 Fab arms; second heavy chain (first heavy entry) and first heavy chain with anti-CD3 scFv (2a5) between CH1 and Fc2
B6: bispecific antibody CS2 (bispecific antibody, human IgG1, kappa)
light: DIVMTQSPSSLTVTAGEKVTMSCKSSQSLLNSGNQKNYLTWYQQKPGQPPKLLIYWASTRESGVPDRFTGSGSGTDFTLTISSVQAEDLAVYYCQNDYSYPFTFGSGTKLEIKRTVAAPSVFIFPPSDEQLKSGTASVVCLLNNFYPREAKVQWKVDNALQSGNSQESVTEQDSKDSTYSLSSTLTLSKADYEKHKVYACEVTHQGLSSPVTKSFNRGEC
heavy 1: QVQLQQPGAELVRPGASVKLSCKASGYTFTSYWINWVKQRPGQGLEWIGNIYPSDSYTNYNQKFKDKATLTVDKSSSTAYMQLSSPTSEDSAVYYCTRSWRGNSFDYWGQGTTLTVSSASTKGPSVFPLAPSSKSTSGGTAALGCLVKDYFPEPVTVSWNSGALTSGVHTFPAVLQSSGLYSLSSVVTVPSSSLGTQTYICNVNHKPSNTKVDKKVEPKSCDKTHTCPPCPAPPVAGPSVFLFPPKPKDTLMISRTPEVTCVVVDVSHEAPEVQFNWYVDGVEVHNAKTKPREEQFNSTFRVVSVLTVVHQDWLNGKEYKCKVSNKGLPAPIEKTISKTKGQPREPQVYTLPPCRDELTKNQVSLWCLVKGFYPSDIAVEWESNGQPENNYKTTPPVLDSDGSFFLYSKLTVDKSRWQQGNVFSCSVMHEALHNHYTQKSLSLSPGK
heavy 2: QVQLQQPGAELVRPGASVKLSCKASGYTFTSYWINWVKQRPGQGLEWIGNIYPSDSYTNYNQKFKDKATLTVDKSSSTAYMQLSSPTSEDSAVYYCTRSWRGNSFDYWGQGTTLTVSSASTKGPSVFPLAPSSKSTSGGTAALGCLVKDYFPEPVTVSWNSGALTSGVHTFPAVLQSSGLYSLSSVVTVPSSSLGTQTYICNVNHKPSNTKVDKKVEPKSCDKTHTAPAPAPAPAPAPAPAPQVQLVESGGGVVQPGRSLRLSCAASGFTFSTYAMNWVRQAPGKGLEWVARIRSKYNNYATYYADSVKDRFTISRDDSKNTLYLQMNSLRAEDTAVYYCARHGNFGNSYVSWFAYWGQGTLVTVSSGGGGSGGGGSGGGGSQTVVTQEPSLTVSPGGTVTLTCRSSTGAVTTSNYANWVQQKPGQAPRGLIGGTNKRAPGVPARFSGSLLGGKAALTLSGVQPEDEAEYYCALWYSNLWVFGGGTKVEIKGGGGSDKTHTCPPCPAPPVAGPSVFLFPPKPKDTLMISRTPEVTCVVVDVSHEAPEVQFNWYVDGVEVHNAKTKPREEQFNSTFRVVSVLTVVHQDWLNGKEYKCKVSNKGLPAPIEKTISKTKGQPREPQVCTLPPSRDELTKNQVSLSCAVKGFYPSDIAVEWESNGQPENNYKTTPPVLDSDGSFFLVSKLTVDKSRWQQGNVFSCSVMHEALHNHYTQKSLSLSPGK
notes: CSBODY structure: two 175D10 Fab arms; second heavy chain (first heavy entry) and first heavy chain with anti-CD3 scFv (2a5) between CH1 and Fc2

target: Human CLDN18.2 (human); experiment: cell-based or functional assay

Binder	EC50 (pM), in vitro killing by hPBMC, NUGC4-hCLDN18.2 cells [pM]	EC50 (pM), in vitro killing by hPBMC, NUGC4 cells [pM]
B1	1.07	7.99
B2	0.306	0.94
B3	0.378	137
B4	0.655	5.83
B5	0.698	0.333
B6	2.17	

target: T1, human CD3 antigen (human, UniProt P07766 23-126); experiment: SPR (Biacore T200), human CD3 antigen amine-coupled on CM5 chip, 1:1 fit
T1 construct: also called Human CD3ϵ
Description: After the detection was completed, data fitting was carried out on the result pattern by adopting Biacore T200 Evaluation Software in a 1:1 binding fitting mode to obtain an equilibrium dissociation constant (KD).

Binder	Kd [nM]
B1	5.77
B2	12
B3	5.74
B4	4.86
B5	10
B6	3.1

target: Human CLDN18.2 (human); experiment: cell-based or functional assay; remark: another data set of the same source

Binder	Induction of expression of CD25 EC50 (pM), NUGC4 [pM]	Induction of expression of CD25 EC50 (pM), NUGC4-hCLDN18.2 [pM]	Induction of expression of CD69 EC50 (pM), NUGC4 [pM]	Induction of expression of CD69 EC50 (pM), NUGC4-hCLDN18.2 [pM]
B1	17.2	2.32	4.87	0.592
B2	2.38	1.19	0.446	0.196
B3	12.2	0.962	0.61	0.67
B4	15.7	1.78	4.13	0.465
B5	5.38	5.45	0.461	1.45
B6	216	1.21	29.5	0.389

target: T2, Human CLDN18.2 (human); experiment: flow cytometry, NUGC4-hCLDN18.2 cells
T2 construct: the cell line is named under assay; also called hCLDN18.2; human CLDN18.2 antigen
Description: (§1) NUGC4 and NUGC4-hCLDN18.2 cells were cultured, digested with pancreatin and centrifuged to collect cells. The cells were collected and resuspended in buffer (PBS+1% FBS) at 1×10⁴ cells/well in a 96-well plate at 100 μL per well. Then the mixture was centrifuged at 350×g for 5 min, and the supernatant was removed.

Binder	EC50 [nM]
B1	45.9
B2	18.9
B3	24.4
B4	25.4
B5	31.5
B6	36

target: T2, Human CLDN18.2; experiment: flow cytometry, NUGC4 cells (endogenous CLDN18.2)
Description: as §1

Binder	EC50 [nM]
B1	184
B2	23.4
B3	58.9
B4	127
B5	64
